Source: EP0842426B1

Columns and labels:
Test in all cases: cell-based or functional assay
[1] = molecular target: EGF receptor on NIH3T3 cells and NIH3T3 clones transfected with EGF receptor expression constructs
[2] = molecular target: ecotropic MLV receptor (mouse) (UniProt Q09143)
[3] = molecular target: human epidermal growth factor receptor (human) (UniProt P00533)
[4] = molecular target: amphotropic receptor on human B and T cell lines (K422 and Jurkat) (human) (UniProt Q08357)
[5] = molecular target: amphotropic MLV receptor on NIH3T3 mouse fibroblasts (mouse) (UniProt Q80UP8)
amphotropic MLV receptor on NIH3T3 mouse fibroblasts (mouse), sequence (Q80UP8 whole entry): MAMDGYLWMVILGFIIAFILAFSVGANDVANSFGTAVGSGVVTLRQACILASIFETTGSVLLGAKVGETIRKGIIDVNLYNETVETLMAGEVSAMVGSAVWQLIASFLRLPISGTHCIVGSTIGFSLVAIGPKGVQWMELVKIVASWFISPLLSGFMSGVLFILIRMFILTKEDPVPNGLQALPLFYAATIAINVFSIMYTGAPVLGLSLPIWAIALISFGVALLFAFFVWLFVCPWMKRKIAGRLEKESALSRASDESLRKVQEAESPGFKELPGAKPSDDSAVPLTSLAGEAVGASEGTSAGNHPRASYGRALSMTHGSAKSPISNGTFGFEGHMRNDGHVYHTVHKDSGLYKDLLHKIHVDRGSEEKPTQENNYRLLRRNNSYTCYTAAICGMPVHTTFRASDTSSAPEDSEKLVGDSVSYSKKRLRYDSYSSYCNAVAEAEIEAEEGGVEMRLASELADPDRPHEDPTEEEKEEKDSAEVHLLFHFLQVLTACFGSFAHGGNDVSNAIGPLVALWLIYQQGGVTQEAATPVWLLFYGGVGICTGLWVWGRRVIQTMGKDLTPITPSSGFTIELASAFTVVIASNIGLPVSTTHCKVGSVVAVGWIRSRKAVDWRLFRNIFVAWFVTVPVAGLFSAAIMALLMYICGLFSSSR

ecotropic MLV receptor (mouse), sequence (Q09143 whole entry): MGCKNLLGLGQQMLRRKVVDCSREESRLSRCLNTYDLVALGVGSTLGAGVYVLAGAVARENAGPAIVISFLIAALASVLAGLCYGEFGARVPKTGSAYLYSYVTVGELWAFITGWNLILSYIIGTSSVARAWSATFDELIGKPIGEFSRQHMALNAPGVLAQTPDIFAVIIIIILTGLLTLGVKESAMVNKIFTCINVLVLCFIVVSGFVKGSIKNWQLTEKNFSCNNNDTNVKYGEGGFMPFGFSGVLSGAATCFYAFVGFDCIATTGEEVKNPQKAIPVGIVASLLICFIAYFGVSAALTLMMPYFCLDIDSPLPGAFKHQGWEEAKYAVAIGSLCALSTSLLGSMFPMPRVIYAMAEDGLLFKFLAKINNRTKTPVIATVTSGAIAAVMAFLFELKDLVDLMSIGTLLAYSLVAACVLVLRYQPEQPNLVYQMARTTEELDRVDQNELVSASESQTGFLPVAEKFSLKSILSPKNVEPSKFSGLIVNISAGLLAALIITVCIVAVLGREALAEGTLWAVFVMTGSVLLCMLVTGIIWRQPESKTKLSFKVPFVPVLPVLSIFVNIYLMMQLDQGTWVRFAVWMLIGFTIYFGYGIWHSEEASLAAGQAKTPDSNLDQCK
Moloney MLV ecotropic envelope glycoprotein (control envelope MO), sequence (P03385 34-665 limits assumed): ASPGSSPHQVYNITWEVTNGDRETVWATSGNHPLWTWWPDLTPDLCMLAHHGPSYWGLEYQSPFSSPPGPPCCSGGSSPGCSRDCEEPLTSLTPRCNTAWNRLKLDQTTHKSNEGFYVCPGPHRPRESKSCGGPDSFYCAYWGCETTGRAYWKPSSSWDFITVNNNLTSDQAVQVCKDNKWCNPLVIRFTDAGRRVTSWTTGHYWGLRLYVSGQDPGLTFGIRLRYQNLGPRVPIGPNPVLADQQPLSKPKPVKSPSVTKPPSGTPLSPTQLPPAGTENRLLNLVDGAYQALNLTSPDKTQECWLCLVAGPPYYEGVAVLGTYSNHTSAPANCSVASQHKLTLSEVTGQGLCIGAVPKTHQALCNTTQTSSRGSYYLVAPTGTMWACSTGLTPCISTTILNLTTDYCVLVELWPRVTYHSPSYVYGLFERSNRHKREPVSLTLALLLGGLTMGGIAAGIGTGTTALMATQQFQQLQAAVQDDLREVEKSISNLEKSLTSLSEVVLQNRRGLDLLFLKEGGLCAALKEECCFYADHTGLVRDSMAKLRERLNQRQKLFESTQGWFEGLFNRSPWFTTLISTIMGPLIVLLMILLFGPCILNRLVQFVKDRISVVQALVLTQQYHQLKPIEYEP
amphotropic receptor on human B and T cell lines (K422 and Jurkat) (human), sequence (Q08357 whole entry): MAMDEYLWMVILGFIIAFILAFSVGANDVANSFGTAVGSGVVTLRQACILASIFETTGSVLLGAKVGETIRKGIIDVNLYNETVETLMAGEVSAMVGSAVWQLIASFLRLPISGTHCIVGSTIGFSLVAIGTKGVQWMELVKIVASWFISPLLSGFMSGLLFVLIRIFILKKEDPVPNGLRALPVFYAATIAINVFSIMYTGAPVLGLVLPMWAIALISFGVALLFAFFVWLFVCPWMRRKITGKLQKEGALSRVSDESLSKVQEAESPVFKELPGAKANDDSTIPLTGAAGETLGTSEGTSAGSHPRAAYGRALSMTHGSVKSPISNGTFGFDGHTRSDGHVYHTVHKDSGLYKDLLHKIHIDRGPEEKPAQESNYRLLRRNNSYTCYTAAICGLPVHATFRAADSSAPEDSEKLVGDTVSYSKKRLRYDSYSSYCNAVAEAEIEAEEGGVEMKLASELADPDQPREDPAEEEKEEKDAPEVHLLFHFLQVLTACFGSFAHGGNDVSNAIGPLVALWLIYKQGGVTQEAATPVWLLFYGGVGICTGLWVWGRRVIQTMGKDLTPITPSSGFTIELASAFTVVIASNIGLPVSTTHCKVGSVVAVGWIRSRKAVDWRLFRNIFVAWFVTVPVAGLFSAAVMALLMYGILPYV

Which results are given for “chimaeric EMO envelope glycoprotein (human EGF inserted in the Moloney MLV envelope SU glycoprotein at amino acid +6) (from UniProt P03385 34-39; P01133 23-1207; P03385 40-469)”?
reduction of virus titre by EGF.R expression on mouse fibroblasts [1]: < 1000 fold; titre on NIH3T3 cells with EGFR No. 10,000, lacZ-EFU/ml [1]: 100000 lacZ-EFU/ml; titre on NIH3T3 cells with EGFR No. 80,000, lacZ-EFU/ml [1]: 10000 lacZ-EFU/ml; titre on NIH3T3 cells with EGFR No. 400,000, lacZ-EFU/ml [1]: 1000 lacZ-EFU/ml; titre on 3T3 (NIH3T3), lacZ-EFU/ml [2]: 100000 lacZ-EFU/ml; titre on 3T3/A (GP+EAM12, expressing amphotropic envelope), lacZ-EFU/ml [2]: 100000 lacZ-EFU/ml; titre on 3T3/E (psi2, expressing MoMLV envelope), lacZ-EFU/ml [2]: < 1 lacZ-EFU/ml; titre on A431 cells with chloroquine, lacZ EFU/ml [3]: 225 lacZ EFU/ml; titre on NR6-wt hEGF.R cells, + rEGF (pre-incubated with recombinant EGF), lacZ-EFU/ml [3]: 100000 lacZ-EFU/ml; titre on NR6-wt hEGF.R cells, - rEGF, lacZ-EFU/ml [3]: 1000 lacZ-EFU/ml; titre on TE671 cells with chloroquine, lacZ EFU/ml [3]: 46 lacZ EFU/ml

Which titre on Jurkat cells (devoid of EGF.R), lacZ-EFU/ml [4] does the source give for “chimaeric EGF-4070A (EA) envelope glycoprotein (human EGF fused to the amphotropic 4070A MLV envelope at position +5) (from UniProt P03385 34-39; P01133 23-1207)” here?
The titre on Jurkat cells (devoid of EGF.R), lacZ-EFU/ml was 1000 lacZ-EFU/ml.

What about the titre on K422 cells (devoid of EGF.R), lacZ-EFU/ml [4] of the same substance?
The titre on K422 cells (devoid of EGF.R), lacZ-EFU/ml was 10000 lacZ-EFU/ml.

And the inhibition of viral infection by EGF receptor expression on NR6 cells [3]?
Its inhibition of viral infection by EGF receptor expression on NR6 cells is 100 fold.

And the titre on NR6-wt hEGF.R cells, + rEGF (pre-incubated with recombinant EGF), lacZ-EFU/ml [3]?
The titre on NR6-wt hEGF.R cells, + rEGF (pre-incubated with recombinant EGF), lacZ-EFU/ml was 500000 lacZ-EFU/ml.

What about the titre on NR6-wt hEGF.R cells, - rEGF, lacZ-EFU/ml [3] of the same substance?
Its titre on NR6-wt hEGF.R cells, - rEGF, lacZ-EFU/ml is 3000 lacZ-EFU/ml.

What about the titre reduction on EGF receptor-positive human cells compared to control viruses with unmodified 4070A envelopes [3] of the same substance?
The titre reduction on EGF receptor-positive human cells compared to control viruses with unmodified 4070A envelopes was less than 1e+07 fold.

“Moloney MLV ecotropic envelope glycoprotein (control envelope MO) (from UniProt P03385 34-665)” was tested. Which titre on 3T3 (NIH3T3), lacZ-EFU/ml [2] did it give?
Its titre on 3T3 (NIH3T3), lacZ-EFU/ml is 1e+07 lacZ-EFU/ml.

And the titre on 3T3/A (GP+EAM12, expressing amphotropic envelope), lacZ-EFU/ml [2]?
Its titre on 3T3/A (GP+EAM12, expressing amphotropic envelope), lacZ-EFU/ml is 1e+07 lacZ-EFU/ml.

And the titre on 3T3/E (psi2, expressing MoMLV envelope), lacZ-EFU/ml [2]?
The titre on 3T3/E (psi2, expressing MoMLV envelope), lacZ-EFU/ml was less than 1 lacZ-EFU/ml.

What about the titre on EJ.A1 cells, lacZ-EFU/ml [2] of the same substance?
The titre on EJ.A1 cells, lacZ-EFU/ml was 1e+06 lacZ-EFU/ml.

Which titre on 3T3 (NIH3T3), lacZ-EFU/ml (row shifted by one column) [5] does the source give for “amphotropic 4070A MLV envelope glycoprotein (control envelope A)” here?
Its titre on 3T3 (NIH3T3), lacZ-EFU/ml (row shifted by one column) is 1e+07 lacZ-EFU/ml.

What about the titre on 3T3/A (GP+EAM12, expressing amphotropic envelope), lacZ-EFU/ml (row shifted by one column) [5] of the same substance?
The titre on 3T3/A (GP+EAM12, expressing amphotropic envelope), lacZ-EFU/ml (row shifted by one column) was 100 lacZ-EFU/ml.

And the titre on 3T3/E (psi2, expressing MoMLV envelope), lacZ-EFU/ml (row shifted by one column) [5]?
Its titre on 3T3/E (psi2, expressing MoMLV envelope), lacZ-EFU/ml (row shifted by one column) is 1e+07 lacZ-EFU/ml.
